Reference: paper PMC8883494, “Conformational trapping of an ABC transporter in polymer lipid nanoparticles” (Biochemical Journal, 2021)

Biological target: the molecule itself
Test: SAXS; Sav1866-SMALPs from the 12 ml SEC fraction, undiluted sample, 20 mM Tris pH 8, 150 mM NaCl; DAMMIF models with P1 and P2 symmetry fitted with the crystal structure 2HYD

B1: Staphylococcus aureus ABC transporter Sav1866 in styrene-maleic acid lipid particles (natural protein)
chain: MIKRYLQFVKPYKYRIFATIIVGIIKFGIPMLIPLLIKYAIDGVINNHALTTDEKVHHLTIAIGIALFIFVIVRPPIEFIRQYLAQWTSNKILYDIRKKLYNHLQALSARFYANNQVGQVISRVINDVEQTKDFILTGLMNIWLDCITIIIALSIMFFLDVKLTLAALFIFPFYILTVYVFFGRLRKLTRERSQALAEVQGFLHERVQGISVVKSFAIEDNEAKNFDKKNTNFLTRALKHTRWNAYSFAAINTVTDIGPIIVIGVGAYLAISGSITVGTLAAFVGYLELLFGPLRRLVASFTTLTQSFASMDRVFQLIDEDYDIKNGVGAQPIEIKQGRIDIDHVSFQYNDNEAPILKDINLSIEKGETVAFVGMSGGGKSTLINLIPRFYDVTSGQILIDGHNIKDFLTGSLRNQIGLVQQDNILFSDTVKENILLGRPTATDEEVVEAAKMANAHDFIMNLPQGYDTEVGERGVKLSGGQKQRLSIARIFLNNPPILILDEATSALDLESESIIQEALDVLSKDRTTLIVAHRLSTITHADKIVVIENGHIVETGTHRELIAKQGAYEHLYSIQNL
notes: Sav1866, ABC transporter (half-transporter, homodimer) of Staphylococcus aureus; expressed from pet-19b:sav1866; M from chemical composition 64 863 Da; the undigested band at 65 kDa is called full-length Sav1866; Embedded in a SMALP nanoparticle with E. coli lipids; The DNA construct was a gift; its exact limits and linker are not described; also called Sav1866-SMALPs; Sav1866-10His; source: E. …
stoichiometry N: 2
